Experimental data from the supplement of paper PMC9112550, “Optimization of the antimicrobial peptide Bac7 by deep mutational scanning” (BMC Biology, 2022).

Test system: Escherichia coli TOP10
Assay: shrunken log2 fold change of peptide-encoding DNA abundance (4.5 h post-induction vs induction); higher = less antimicrobial activity (less host growth inhibition)
Details: time post-induction: 4.5 h; library: site-saturation at positions 5, 18, 19, 20
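Also: peptides expressed intracellularly from a pBAD plasmid library in pooled LB shake-flask culture, induced with 0.3% L-arabinose, DNA abundance read by NGS, three biological replicates, DESeq2 with apeglm shrinkage.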

Row | Sequence | shrunken log2 fold change
1 | RRIRMRPPRLPRPRPRPNSFPRP | -0.298
2 | RRIRMRPPRLPRPRPRPNSIPRP | -0.283
3 | RRIRMRPPRLPRPRPRPNTGPRP | 0.151
4 | RRIRMRPPRLPRPRPRPNTWPRP | 0.454
5 | RRIRMRPPRLPRPRPRPNVHPRP | -0.333
6 | RRIRMRPPRLPRPRPRPPAAPRP | 2.78
7 | RRIRMRPPRLPRPRPRPPDGPRP | 1.41
8 | RRIRMRPPRLPRPRPRPPGAPRP | 2.06
9 | RRIRMRPPRLPRPRPRPPGEPRP | 1.47
10 | RRIRMRPPRLPRPRPRPPGVPRP | 0.919
11 | RRIRMRPPRLPRPRPRPPHLPRP | 0.389
12 | RRIRMRPPRLPRPRPRPPHWPRP | 0.898
13 | RRIRMRPPRLPRPRPRPPIDPRP | 0.0677
14 | RRIRMRPPRLPRPRPRPPISPRP | 0.163
15 | RRIRMRPPRLPRPRPRPPKLPRP | 0.343
16 | RRIRMRPPRLPRPRPRPPKVPRP | 0.272
17 | RRIRMRPPRLPRPRPRPPLCPRP | 1.72
18 | RRIRMRPPRLPRPRPRPPLSPRP | 0.185
19 | RRIRMRPPRLPRPRPRPPMRPRP | 1.62
20 | RRIRMRPPRLPRPRPRPPPWPRP | 1.38
21 | RRIRMRPPRLPRPRPRPPQMPRP | 0.594
22 | RRIRMRPPRLPRPRPRPPRDPRP | 1.6
23 | RRIRMRPPRLPRPRPRPPSEPRP | 0.962
24 | RRIRMRPPRLPRPRPRPPSNPRP | 0.104
25 | RRIRMRPPRLPRPRPRPPTGPRP | 0.858

Row | Sequence | shrunken log2 fold change
26 | RRIRMRPPRLPRPRPRPPTLPRP | 0.256
27 | RRIRMRPPRLPRPRPRPPVLPRP | -0.122
28 | RRIRMRPPRLPRPRPRPPWHPRP | 0.438
29 | RRIRMRPPRLPRPRPRPPYDPRP | 0.0745
30 | RRIRMRPPRLPRPRPRPPYKPRP | -0.163
31 | RRIRMRPPRLPRPRPRPQADPRP | 0.639
32 | RRIRMRPPRLPRPRPRPQALPRP | 0.0439
33 | RRIRMRPPRLPRPRPRPQDCPRP | 0.0414
34 | RRIRMRPPRLPRPRPRPQDRPRP | 0.179
35 | RRIRMRPPRLPRPRPRPQEFPRP | 0.284
36 | RRIRMRPPRLPRPRPRPQFRPRP | -0.235
37 | RRIRMRPPRLPRPRPRPQGDPRP | -0.477
38 | RRIRMRPPRLPRPRPRPQIVPRP | -0.163
39 | RRIRMRPPRLPRPRPRPQNNPRP | -0.13
40 | RRIRMRPPRLPRPRPRPQPYPRP | -0.00544
41 | RRIRMRPPRLPRPRPRPQRSPRP | 0.629
42 | RRIRMRPPRLPRPRPRPRAAPRP | 3.2
43 | RRIRMRPPRLPRPRPRPRCWPRP | 0.666
44 | RRIRMRPPRLPRPRPRPRDMPRP | 0.316
45 | RRIRMRPPRLPRPRPRPRDYPRP | -0.164
46 | RRIRMRPPRLPRPRPRPREVPRP | 1.8
47 | RRIRMRPPRLPRPRPRPRFIPRP | -0.154
48 | RRIRMRPPRLPRPRPRPRFKPRP | 0.498
49 | RRIRMRPPRLPRPRPRPRGVPRP | 1.23
50 | RRIRMRPPRLPRPRPRPRHWPRP | 0.477

Row | Sequence | shrunken log2 fold change
51 | RRIRMRPPRLPRPRPRPRIKPRP | 0.0377
52 | RRIRMRPPRLPRPRPRPRMGPRP | 1.11
53 | RRIRMRPPRLPRPRPRPRMKPRP | 0.447
54 | RRIRMRPPRLPRPRPRPRMPPRP | 0.771
55 | RRIRMRPPRLPRPRPRPRPKPRP | 1.07
56 | RRIRMRPPRLPRPRPRPRPVPRP | 1.17
57 | RRIRMRPPRLPRPRPRPRSFPRP | 0.307
58 | RRIRMRPPRLPRPRPRPRTEPRP | 0.718
59 | RRIRMRPPRLPRPRPRPRTQPRP | 0.97
60 | RRIRMRPPRLPRPRPRPRVAPRP | 0.699
61 | RRIRMRPPRLPRPRPRPRWHPRP | 0.378
62 | RRIRMRPPRLPRPRPRPRWNPRP | 0.197
63 | RRIRMRPPRLPRPRPRPRYRPRP | 0.307
64 | RRIRMRPPRLPRPRPRPSAAPRP | 2.7
65 | RRIRMRPPRLPRPRPRPSAHPRP | 0.423
66 | RRIRMRPPRLPRPRPRPSAIPRP | 0.476
67 | RRIRMRPPRLPRPRPRPSCYPRP | -0.348
68 | RRIRMRPPRLPRPRPRPSERPRP | 0.365
69 | RRIRMRPPRLPRPRPRPSHMPRP | -0.146
70 | RRIRMRPPRLPRPRPRPSKDPRP | 0.37
71 | RRIRMRPPRLPRPRPRPSKFPRP | -0.0303
72 | RRIRMRPPRLPRPRPRPSKKPRP | -0.0297
73 | RRIRMRPPRLPRPRPRPSKNPRP | 0.277
74 | RRIRMRPPRLPRPRPRPSMPPRP | -0.201
75 | RRIRMRPPRLPRPRPRPSNDPRP | 0.184

Row | Sequence | shrunken log2 fold change
76 | RRIRMRPPRLPRPRPRPSRIPRP | 0.0606
77 | RRIRMRPPRLPRPRPRPSSYPRP | 0.236
78 | RRIRMRPPRLPRPRPRPSYDPRP | 0.26
79 | RRIRMRPPRLPRPRPRPSYIPRP | -0.275
80 | RRIRMRPPRLPRPRPRPTAFPRP | 0.206
81 | RRIRMRPPRLPRPRPRPTAGPRP | 0.396
82 | RRIRMRPPRLPRPRPRPTAIPRP | 0.072
83 | RRIRMRPPRLPRPRPRPTAWPRP | 1.4
84 | RRIRMRPPRLPRPRPRPTAYPRP | 0.513
85 | RRIRMRPPRLPRPRPRPTCIPRP | -0.00872
86 | RRIRMRPPRLPRPRPRPTDLPRP | 0.225
87 | RRIRMRPPRLPRPRPRPTEEPRP | -0.000967
88 | RRIRMRPPRLPRPRPRPTEFPRP | 0.0756
89 | RRIRMRPPRLPRPRPRPTENPRP | 0.772
90 | RRIRMRPPRLPRPRPRPTGHPRP | 0.63
91 | RRIRMRPPRLPRPRPRPTGPPRP | 0.388
92 | RRIRMRPPRLPRPRPRPTHHPRP | 0.316
93 | RRIRMRPPRLPRPRPRPTHLPRP | 0.396
94 | RRIRMRPPRLPRPRPRPTIWPRP | 0.52
95 | RRIRMRPPRLPRPRPRPTIYPRP | 0.713
96 | RRIRMRPPRLPRPRPRPTKNPRP | 1.35
97 | RRIRMRPPRLPRPRPRPTKTPRP | 0.334
98 | RRIRMRPPRLPRPRPRPTNPPRP | 0.149
99 | RRIRMRPPRLPRPRPRPTPSPRP | 1.18
100 | RRIRMRPPRLPRPRPRPTQNPRP | 1.18

Row | Sequence | shrunken log2 fold change
101 | RRIRMRPPRLPRPRPRPTQYPRP | 0.248
102 | RRIRMRPPRLPRPRPRPTRLPRP | 1.19
103 | RRIRMRPPRLPRPRPRPTRRPRP | 1.14
104 | RRIRMRPPRLPRPRPRPTSLPRP | 0.546
105 | RRIRMRPPRLPRPRPRPTSMPRP | 0.0931
106 | RRIRMRPPRLPRPRPRPTSRPRP | 0.385
107 | RRIRMRPPRLPRPRPRPTVSPRP | 0.0176
108 | RRIRMRPPRLPRPRPRPTVTPRP | 0.307
109 | RRIRMRPPRLPRPRPRPTWFPRP | 0.448
110 | RRIRMRPPRLPRPRPRPTWPPRP | 0.837
111 | RRIRMRPPRLPRPRPRPTWSPRP | 0.66
112 | RRIRMRPPRLPRPRPRPTWTPRP | 0.667
113 | RRIRMRPPRLPRPRPRPTYLPRP | -0.497
114 | RRIRMRPPRLPRPRPRPTYPPRP | -0.0846
115 | RRIRMRPPRLPRPRPRPVCAPRP | 0.698
116 | RRIRMRPPRLPRPRPRPVCMPRP | 0.392
117 | RRIRMRPPRLPRPRPRPVCSPRP | -0.0933
118 | RRIRMRPPRLPRPRPRPVDTPRP | 0.361
119 | RRIRMRPPRLPRPRPRPVDVPRP | -0.163
120 | RRIRMRPPRLPRPRPRPVECPRP | -0.117
121 | RRIRMRPPRLPRPRPRPVESPRP | 0.00581
122 | RRIRMRPPRLPRPRPRPVFFPRP | 0.207
123 | RRIRMRPPRLPRPRPRPVFSPRP | 0.314
124 | RRIRMRPPRLPRPRPRPVGDPRP | 0.173
125 | RRIRMRPPRLPRPRPRPVHAPRP | 1.18

Row | Sequence | shrunken log2 fold change
126 | RRIRMRPPRLPRPRPRPVHLPRP | -0.0129
127 | RRIRMRPPRLPRPRPRPVHMPRP | -0.318
128 | RRIRMRPPRLPRPRPRPVHQPRP | -0.112
129 | RRIRMRPPRLPRPRPRPVLMPRP | 0.229
130 | RRIRMRPPRLPRPRPRPVLRPRP | 0.106
131 | RRIRMRPPRLPRPRPRPVMWPRP | 0.624
132 | RRIRMRPPRLPRPRPRPVMYPRP | -0.0366
133 | RRIRMRPPRLPRPRPRPVNFPRP | -0.114
134 | RRIRMRPPRLPRPRPRPVNYPRP | -0.0244
135 | RRIRMRPPRLPRPRPRPVQTPRP | 0.0257
136 | RRIRMRPPRLPRPRPRPVRRPRP | 0.447
137 | RRIRMRPPRLPRPRPRPVSQPRP | 0.712
138 | RRIRMRPPRLPRPRPRPVTRPRP | 0.494
139 | RRIRMRPPRLPRPRPRPVTTPRP | 0.107
140 | RRIRMRPPRLPRPRPRPVVIPRP | -0.174
141 | RRIRMRPPRLPRPRPRPVVKPRP | 0.189
142 | RRIRMRPPRLPRPRPRPVWDPRP | -0.136
143 | RRIRMRPPRLPRPRPRPVWRPRP | 0.947
144 | RRIRMRPPRLPRPRPRPVYSPRP | -0.248
145 | RRIRMRPPRLPRPRPRPWAPPRP | 0.214
146 | RRIRMRPPRLPRPRPRPWATPRP | 0.194
147 | RRIRMRPPRLPRPRPRPWAWPRP | -0.0978
148 | RRIRMRPPRLPRPRPRPWAYPRP | -0.012
149 | RRIRMRPPRLPRPRPRPWCAPRP | 0.204
150 | RRIRMRPPRLPRPRPRPWCFPRP | -0.144
